Results as given in publication PMC4445065, “SOXE transcription factors form selective dimers on non-compact DNA motifs through multifaceted interactions between dimerization and high-mobility group domains”.

What was measured:
SOX9-NHMG [1] = target: T1, SOX9-NHMG (UniProt Q04887 1-181); test: EMSA; homodimer, cooperativity factor ~100 (about 10-fold diminished); EMSA: 10 mM Tris-HCl pH 8.0, 0.1 mg/ml BSA, 50 uM ZnCl2, 100 mM KCl, 10% glycerol, 0.1% Igepal CA630, 2 mM beta-mercaptoethanol, 50 nM DNA, 4 h at 4 C; CD: 50 mM phosphate pH 8.0, 4 h at 4 C; conditions: protein: recombinant; tags: His6 or His-MBP fusion, removed by TEV; chain copies: 2; label: Cy5 forward strand
SOX9-NHMG [2] = target: T1, SOX9-NHMG; test: EMSA; highly cooperative homodimer; EMSA: 10 mM Tris-HCl pH 8.0, 0.1 mg/ml BSA, 50 uM ZnCl2, 100 mM KCl, 10% glycerol, 0.1% Igepal CA630, 2 mM beta-mercaptoethanol, 50 nM DNA, 4 h at 4 C; CD: 50 mM phosphate pH 8.0, 4 h at 4 C; conditions: protein: recombinant; tags: His6 or His-MBP fusion, removed by TEV; chain copies: 2; label: Cy5 forward strand
SOX9-NHMG;SOX8-HMG = SOX9-NHMG;SOX8-HMG (;, UniProt Q04887;Q04886 1-181;97-175, |); test: EMSA; heterodimer more prominent than SOX9-NHMG homodimer; EMSA: 10 mM Tris-HCl pH 8.0, 0.1 mg/ml BSA, 50 uM ZnCl2, 100 mM KCl, 10% glycerol, 0.1% Igepal CA630, 2 mM beta-mercaptoethanol, 50 nM DNA, 4 h at 4 C; CD: 50 mM phosphate pH 8.0, 4 h at 4 C; conditions: protein: recombinant;recombinant; tags: His6 or His-MBP fusion, removed by TEV;; copies: 1;1; label: Cy5 forward strand
SOX9-NHMG;SOX10-HMG = SOX9-NHMG;SOX10-HMG (;, UniProt Q04887;Q04888 1-181;102-180, |); test: as above; conditions: protein: recombinant;recombinant; tags: His6 or His-MBP fusion, removed by TEV;N-terminal His6 (Methods, possibly only this construct); copies: 1;1; label: Cy5 forward strand
SOX8-NHMG = SOX8-NHMG (UniProt Q04886 1-175); test: EMSA; homodimer, as cooperative as SOX9-NHMG; EMSA: 10 mM Tris-HCl pH 8.0, 0.1 mg/ml BSA, 50 uM ZnCl2, 100 mM KCl, 10% glycerol, 0.1% Igepal CA630, 2 mM beta-mercaptoethanol, 50 nM DNA, 4 h at 4 C; CD: 50 mM phosphate pH 8.0, 4 h at 4 C; conditions: protein: recombinant; tags: His6 or His-MBP fusion, removed by TEV; chain copies: 2; label: Cy5 forward strand
SOX10-DHMG = SOX10-DHMG (UniProt Q04888 61-180); test: as above; conditions: protein: recombinant; tags: His6 or His-MBP fusion, removed by TEV; chain copies: 2; label: Cy5 forward strand
SOX8-NHMG;SOX10-DHMG = SOX8-NHMG;SOX10-DHMG (;, UniProt Q04886;Q04888 1-175;61-180, |); test: EMSA; heterodimer band; EMSA: 10 mM Tris-HCl pH 8.0, 0.1 mg/ml BSA, 50 uM ZnCl2, 100 mM KCl, 10% glycerol, 0.1% Igepal CA630, 2 mM beta-mercaptoethanol, 50 nM DNA, 4 h at 4 C; CD: 50 mM phosphate pH 8.0, 4 h at 4 C; conditions: protein: recombinant;recombinant, tags: His6 or His-MBP fusion, removed by TEV;His6 or His-MBP fusion, copies: 1;1, label: Cy5 forward strand
SOX9-DHMG;SOX8-NHMG = SOX9-DHMG;SOX8-NHMG (;, UniProt Q04887;Q04886 60-181;1-175, |); test: as above; conditions: protein: recombinant;recombinant, tags: His6 or His-MBP fusion, removed by TEV;His6 or His-MBP fusion, copies: 1;1, label: Cy5 forward strand
SOX9-NHMG;SOX10-DHMG = SOX9-NHMG;SOX10-DHMG (;, UniProt Q04887;Q04888 1-181;61-180, |); test: as above; conditions: protein: recombinant;recombinant, tags: His6 or His-MBP fusion, removed by TEV;His6 or His-MBP fusion, copies: 1;1, label: Cy5 forward strand
SOX9-NHMG [3] = target: T1, SOX9-NHMG; test: EMSA; highly cooperative homodimer; cooperativity factor denoted infinite; EMSA: 10 mM Tris-HCl pH 8.0, 0.1 mg/ml BSA, 50 uM ZnCl2, 100 mM KCl, 10% glycerol, 0.1% Igepal CA630, 2 mM beta-mercaptoethanol, 50 nM DNA, 4 h at 4 C; CD: 50 mM phosphate pH 8.0, 4 h at 4 C; conditions: protein: recombinant; tags: His6 or His-MBP fusion, removed by TEV; chain copies: 2; label: Cy5 forward strand
SOX10-DHMG;SOX9-HMG = SOX10-DHMG;SOX9-HMG (;, UniProt Q04888;Q04887 61-180;103-181, |); test: EMSA; mixed dimer with single DIM; EMSA: 10 mM Tris-HCl pH 8.0, 0.1 mg/ml BSA, 50 uM ZnCl2, 100 mM KCl, 10% glycerol, 0.1% Igepal CA630, 2 mM beta-mercaptoethanol, 50 nM DNA, 4 h at 4 C; CD: 50 mM phosphate pH 8.0, 4 h at 4 C; conditions: protein: recombinant;recombinant; tags: His6 or His-MBP fusion, removed by TEV;; copies: 1;1; label: Cy5 forward strand
SOX8-NHMG;SOX10-HMG = SOX8-NHMG;SOX10-HMG (;, UniProt Q04886;Q04888 1-175;102-180, |); test: as above; conditions: protein: recombinant;recombinant; tags: His6 or His-MBP fusion, removed by TEV;N-terminal His6 (Methods, possibly only this construct); copies: 1;1; label: Cy5 forward strand
SOX10-DHMG;SOX8-HMG = SOX10-DHMG;SOX8-HMG (;, UniProt Q04888;Q04886 61-180;97-175, |); test: as above; conditions: protein: recombinant;recombinant; tags: His6 or His-MBP fusion, removed by TEV;; copies: 1;1; label: Cy5 forward strand
SOX8-NHMG;SOX8-HMG = SOX8-NHMG;SOX8-HMG (;, UniProt Q04886;Q04886 1-175;97-175, |); test: as above; conditions: protein: recombinant;recombinant; tags: His6 or His-MBP fusion, removed by TEV;; copies: 1;1; label: Cy5 forward strand
SOX8-NHMG;SOX9-HMG = SOX8-NHMG;SOX9-HMG (;, UniProt Q04886;Q04887 1-175;103-181, |); test: as above; conditions: protein: recombinant;recombinant; tags: His6 or His-MBP fusion, removed by TEV;; copies: 1;1; label: Cy5 forward strand
SOX10-DHMG;SOX10-HMG = SOX10-DHMG;SOX10-HMG (;, UniProt Q04888;Q04888 61-180;102-180, |); test: as above; conditions: protein: recombinant;recombinant; tags: His6 or His-MBP fusion, removed by TEV;N-terminal His6 (Methods, possibly only this construct); copies: 1;1; label: Cy5 forward strand
SOX9-NHMG;SOX9-HMG = SOX9-NHMG;SOX9-HMG (;, UniProt Q04887;Q04887 1-181;103-181, |); test: EMSA; mixed dimer more prominent than SOX9-NHMG homodimer; EMSA: 10 mM Tris-HCl pH 8.0, 0.1 mg/ml BSA, 50 uM ZnCl2, 100 mM KCl, 10% glycerol, 0.1% Igepal CA630, 2 mM beta-mercaptoethanol, 50 nM DNA, 4 h at 4 C; CD: 50 mM phosphate pH 8.0, 4 h at 4 C; conditions: protein: recombinant;recombinant; tags: His6 or His-MBP fusion, removed by TEV;; copies: 1;1; label: Cy5 forward strand

Measured: binding result

T1 sequence (Q04887 1-181): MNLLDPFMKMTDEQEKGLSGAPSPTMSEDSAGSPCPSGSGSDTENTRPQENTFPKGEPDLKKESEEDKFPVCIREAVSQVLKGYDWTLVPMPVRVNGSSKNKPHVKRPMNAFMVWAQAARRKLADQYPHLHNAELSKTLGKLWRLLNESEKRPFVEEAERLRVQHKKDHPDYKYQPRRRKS
Sequence of SOX8-NHMG;SOX8-HMG (Q04886 1-175, chain 1 of 2): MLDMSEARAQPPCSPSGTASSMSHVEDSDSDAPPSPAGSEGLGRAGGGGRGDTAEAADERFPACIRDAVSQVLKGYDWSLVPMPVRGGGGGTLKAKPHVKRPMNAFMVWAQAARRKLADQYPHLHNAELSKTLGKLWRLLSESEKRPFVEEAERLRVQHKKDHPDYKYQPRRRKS
Sequence of SOX8-NHMG;SOX8-HMG (Q04886 97-175, chain 2 of 2): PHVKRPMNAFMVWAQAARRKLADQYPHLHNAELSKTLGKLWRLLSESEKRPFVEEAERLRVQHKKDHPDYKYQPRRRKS
Sequence of SOX8-NHMG;SOX10-DHMG (Q04886 1-175, chain 1 of 2): as the sequence (Q04886 1-175, chain 1 of 2) above
Sequence of SOX8-NHMG;SOX10-DHMG (Q04888 61-180, chain 2 of 2): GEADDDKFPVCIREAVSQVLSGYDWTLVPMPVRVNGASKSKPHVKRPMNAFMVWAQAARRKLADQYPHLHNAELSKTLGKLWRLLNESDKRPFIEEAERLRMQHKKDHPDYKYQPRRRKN
Sequence of SOX8-NHMG;SOX10-HMG (Q04886 1-175, chain 1 of 2): as the sequence (Q04886 1-175, chain 1 of 2) above
Sequence of SOX8-NHMG;SOX10-HMG (Q04886 other isoform, or with tags, fused parts or gaps |, chain 2 of 2): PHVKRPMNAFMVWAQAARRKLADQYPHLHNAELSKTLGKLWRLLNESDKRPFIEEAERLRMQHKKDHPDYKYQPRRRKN
Sequence of SOX8-NHMG;SOX9-HMG (Q04886 1-175, chain 1 of 2): as the sequence (Q04886 1-175, chain 1 of 2) above
Sequence of SOX8-NHMG;SOX9-HMG (Q04886 97-175 S141N, chain 2 of 2): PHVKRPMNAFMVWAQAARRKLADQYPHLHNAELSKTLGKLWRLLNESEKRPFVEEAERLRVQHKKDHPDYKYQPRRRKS
Sequence of SOX8-NHMG (Q04886 1-175): as the sequence (Q04886 1-175, chain 1 of 2) above
Sequence of SOX9-DHMG;SOX8-NHMG (Q04887 60-181, chain 1 of 2): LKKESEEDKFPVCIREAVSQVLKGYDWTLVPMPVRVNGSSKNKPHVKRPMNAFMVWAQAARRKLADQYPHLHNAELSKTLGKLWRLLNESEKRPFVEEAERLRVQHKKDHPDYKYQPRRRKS
Sequence of SOX9-DHMG;SOX8-NHMG (Q04886 1-175, chain 2 of 2): as the sequence (Q04886 1-175, chain 1 of 2) above
Sequence of SOX10-DHMG;SOX9-HMG (Q04888 61-180, chain 1 of 2): as the sequence (Q04888 61-180, chain 2 of 2) above
Sequence of SOX10-DHMG;SOX9-HMG (Q04888 other isoform, or with tags, fused parts or gaps |, chain 2 of 2): as the sequence (Q04886 97-175 S141N, chain 2 of 2) above
Sequence of SOX10-DHMG;SOX8-HMG (Q04888 61-180, chain 1 of 2): as the sequence (Q04888 61-180, chain 2 of 2) above
Sequence of SOX10-DHMG;SOX8-HMG (Q04888 other isoform, or with tags, fused parts or gaps |, chain 2 of 2): as the sequence (Q04886 97-175, chain 2 of 2) above
Sequence of SOX10-DHMG (Q04888 61-180): as the sequence (Q04888 61-180, chain 2 of 2) above
Sequence of SOX10-DHMG;SOX10-HMG (Q04888 61-180, chain 1 of 2): as the sequence (Q04888 61-180, chain 2 of 2) above
Sequence of SOX10-DHMG;SOX10-HMG (Q04888 102-180, chain 2 of 2): as the sequence (Q04886 other isoform, or with tags, fused parts or gaps |, chain 2 of 2) above
Sequence of SOX9-NHMG;SOX8-HMG (Q04887 1-181, chain 1 of 2): as the sequence (Q04887 1-181) above
Sequence of SOX9-NHMG;SOX8-HMG (Q04887 103-181 N147S, chain 2 of 2): as the sequence (Q04886 97-175, chain 2 of 2) above
Sequence of SOX9-NHMG;SOX9-HMG (Q04887 1-181, chain 1 of 2): as the sequence (Q04887 1-181) above
Sequence of SOX9-NHMG;SOX9-HMG (Q04887 103-181, chain 2 of 2): as the sequence (Q04886 97-175 S141N, chain 2 of 2) above
Sequence of SOX9-NHMG;SOX10-HMG (Q04887 1-181, chain 1 of 2): as the sequence (Q04887 1-181) above
Sequence of SOX9-NHMG;SOX10-HMG (Q04887 other isoform, or with tags, fused parts or gaps |, chain 2 of 2): as the sequence (Q04886 other isoform, or with tags, fused parts or gaps |, chain 2 of 2) above
Sequence of SOX9-NHMG;SOX10-DHMG (Q04887 1-181, chain 1 of 2): as the sequence (Q04887 1-181) above
Sequence of SOX9-NHMG;SOX10-DHMG (Q04887 other isoform, or with tags, fused parts or gaps |, chain 2 of 2): as the sequence (Q04888 61-180, chain 2 of 2) above

B1: 0 bp spacer SOX dimer probe (dsDNA)
DNA 1: CCGCCGTAACAATGCATTGTTGCCGCC
DNA 2: GGCGGCAACAATGCATTGTTACGGCGG
binds: SOX9-NHMG [1]

B2: 3 bp spacer SOX dimer probe (dsDNA)
DNA 1: CGCCGAAAACAAAGGACCTTTGTTTTGCCG
DNA 2: CGGCAAAACAAAGGTCCTTTGTTTTCGGCG
binds: SOX9-NHMG [2]

B3: 4 bp spacer SOX dimer probe (dsDNA)
DNA 1: GCCGAAAACAAAGGAACCTTTGTTTTGCCG
DNA 2: CGGCAAAACAAAGGTTCCTTTGTTTTCGGC
not listed: SOX9-NHMG [1] | SOX9-NHMG [2]
binds: all other assays above

B4: 1 bp spacer SOX dimer probe (dsDNA)
DNA 1: CCGCCGAACAATGTCATTGTTGCCGCC
DNA 2: GGCGGCAACAATGACATTGTTCGGCGG
binds: SOX9-NHMG [1]

B5: 5 bp spacer SOX dimer probe (dsDNA)
DNA 1: GCCGAAAACAAAGGATACCTTTGTTTTGCC
DNA 2: GGCAAAACAAAGGTATCCTTTGTTTTCGGC
binds: SOX9-NHMG [3]

B6: 6 bp spacer SOX dimer probe (dsDNA)
DNA 1: CCGAAAACAAAGGATTACCTTTGTTTTGCC
DNA 2: GGCAAAACAAAGGTAATCCTTTGTTTTCGG
binds: SOX9-NHMG [1]

B7: 2 bp spacer SOX dimer probe (dsDNA)
DNA 1: CGCCGAAAACAAAGGCCTTTGTTTTGCCGC
DNA 2: GCGGCAAAACAAAGGCCTTTGTTTTCGGCG
binds: SOX9-NHMG [1]
